Experimental data taken from the supplement of paper PMC10567573.

B1: GFOD1 (parent)
chain: SDDFCTFQMVLEGGVCCTVTLNFN
B2: MYBL2 (parent)
chain: IAKHLKGRLGKQCRERWHNHLNPE

Variants of: B1
Test: protein stability index of a GFP-peptide fusion (GPS, HEK-293T) (PSI 1-6); higher = more stable
Conditions: c terminus: a fixed tail appended
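Note: lentivirally expressed fusions sorted by FACS into six bins by GFP to DsRed ratio, PSI derived from sequencing read proportions per bin multiplied by bin number.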

Protein stability index, by site and new letter:
L11: V 3.22 | F 3.38 | K 2.9 | D 3.52 | A 1.26 | P 3.4 | I 2.51 | H 3.05 | R 3.43 | Y 3.1
D2: N 3.57 | M 1.27 | G 2.84 | L 3.05 | T 3.29 | S 3.14 | C 3.12 | Y 3.72 | H 2.72 | E 3.11 | Q 3.58 | A 3.55
C5: K 2.39 | A 1.58 | R 3.13 | Q 3.77 | L 3.9 | M 3.18 | H 2.97 | V 3.65 | F 2.08 | D 2.59 | I 3.26
C16: I 3.88 | E 2.24 | A 4.12 | Q 2.45 | F 1.78 | P 2.65 | T 3.75 | Y 2.76 | K 2.95 | G 3.63 | D 2.56 | S 3.6 | V 2.46 | W 2.8 | N 2.89 | H 3.09
G14: L 3.96 | R 1.6 | K 2.74 | D 3.01 | M 2.54 | W 2.93 | E 2.08 | P 2.84 | N 1.78 | Y 1.83 | Q 1.74 | A 2.87 | C 2.19
D3: I 1.7 | L 2.58 | N 2.68 | G 3.28 | K 3.76 | P 3.01 | V 3.3 | Y 4 | A 2.55 | Q 2.69
V10: S 2.04 | N 1.83 | D 3.42 | P 2.35 | L 2.58 | H 2.2 | Q 1.29 | T 2.36 | Y 1.13 | M 1.84 | C 3.77 | A 2.91 | K 2.56 | W 3.71 | F 4.27 | I 1
N22: Q 4.04 | W 2.88 | C 3.25 | R 2.43 | H 2.62 | L 2.04 | I 3.6 | Y 2.33 | P 2.9 | D 2.09 | E 1.62
F4: V 2.91 | H 1.87 | I 3.55 | T 3.91 | Y 2.63 | Q 2.56 | L 3.55 | M 3.37 | S 2.38 | E 1.81 | D 2.46 | K 1.77 | R 3.19 | N 3.13 | C 3.57
G13: K 3.14 | D 3.2 | P 2.92 | E 2.48 | R 3.71 | L 4.34 | I 2.35 | N 2.32 | F 2.3 | V 2.5 | M 2.94 | A 3.65 | Q 3.22
T18: W 1.95 | F 2.37 | N 2.33 | Y 2.44 | D 3.76 | R 1.48 | V 3.91 | M 2.07 | C 2.71 | A 3.01 | H 2.14 | G 3.96 | E 3.76 | I 3.52 | L 2.5
T6: F 2.48 | I 2.48 | E 2.56 | W 2.35 | Y 1.92 | K 2.04 | N 2.54 | M 3.02 | P 1.65 | G 2.51 | D 3.22 | A 2.79 | H 2.12
F7: W 2.67 | Y 2.77 | D 1.59 | T 2.64 | H 2.26 | N 1.63 | E 2.03 | P 1.46 | G 2.88 | V 1.98 | K 1.93
S1: M 2.15 | K 3.01 | Y 3.3 | T 3.26 | P 2.84 | H 2.21 | Q 1.76 | N 2.42 | E 1.75 | A 3.07 | D 2.52 | R 2.98
Q8: A 3.01 | V 3.25 | N 2.13 | D 2.45 | H 3.2 | E 2.71 | L 3.02 | R 4.3 | K 3.33 | Y 1.44 | C 2.98 | W 2.86 | G 1.72 | M 3.81 | I 3.21
V15: Y 4.1 | H 4.25 | I 1.72 | E 2.33 | Q 2.94 | F 3.41 | K 2.27 | C 2.55 | P 2.97 | R 3.84 | L 4.13 | D 2.58 | M 3.15
F23: A 2.62 | D 2.19
T20: N 3.6 | P 1.49 | F 3.21 | Q 3.57 | M 2.71 | H 2.03 | L 1.03 | Y 1.97 | C 1.75 | W 2.71
M9: K 1.8 | Q 1.55 | V 2.59 | W 2.28 | E 1.42 | F 2.5 | A 2.43 | T 3.09 | H 2.74 | D 2.18 | L 2.7 | C 2.77 | Y 2.76 | G 3.57 | P 1.27 | I 3.34
L21: M 2.22 | Y 1.69 | G 2.41 | Q 1.93 | S 1.84 | P 2.02 | A 2.61 | E 1.63 | D 1.75 | I 3 | F 2.73 | R 1.55 | N 1.35
V19: T 3.14 | H 2.41 | A 1.95 | S 2.07 | Q 1.75 | F 2.73 | C 3.15 | E 2.11 | P 2.12 | K 1.22 | I 3.22 | N 2.07 | Y 2.38 | R 1.9 | W 2.61 | G 2.02 | D 2.65 | L 3.49
E12: I 2.56 | Q 2.74 | T 1.99 | L 4.46 | V 3.03 | F 2.27 | W 2.6 | N 3.79 | H 2.37 | S 3.99 | G 3.33 | A 3.59 | C 2.46 | M 3.38
C17: Q 2.87 | P 2.66 | A 2.49 | E 1.21 | F 3.18 | I 2.36 | W 2.79 | D 1.8 | V 1.89 | L 3.21 | K 2.52 | H 2.13 | N 2.77 | T 3.25

Variants of: B2
Test: as above
Conditions: c terminus: a fixed tail appended

Protein stability index, by site and new letter:
E24: I 2.27 | A 2.08 | R 2.75 | G 3 | F 2.82 | T 2.21 | L 2.54 | M 3.97 | D 2.34 | N 2.35 | P 2.12 | Q 1.4 | V 3.05 | S 1.81 | W 1.79 | K 2.68 | H 2 | C 1.41
N22: V 2.44 | Y 2.45 | T 2.53 | W 2.6
P23: S 1.49 | R 2.11 | Y 1.33 | C 2.4 | L 1.66 | Q 1.79 | N 1.93 | A 2.62 | F 3.01 | V 2.46 | G 2.03 | M 2.21 | E 1.85 | K 2.26 | D 1.89 | T 2.19 | W 1.98 | I 2.14 | H 2.1
